Patent US20060140929A1 (Merck KGaA, published 2006)
Positions count from the first letter of the chain named. In names and notes the source's numbering stands.

B1: hirudin mutein M 37 (L13T) (other)
chain: VVYTDCTESGQNTCLCEGSVVCGQGNKCILGSDGEKNQCVTGEGTPKPESHNDGDFEEIPEEYLQ
B2: hirudin mutein M 68 (L30P) (other)
chain: B1 chain with T13L, L30P
B3: hirudin mutein M 49 (V21R) (other)
chain: B1 chain with T13L, V21R
B4: hirudin mutein M 47 (V21P) (other)
chain: B1 chain with T13L, V21P
B5: hirudin mutein M 74 (V40T) (other)
chain: B1 chain with T13L, V40T
B6: hirudin mutein M 41 (L15T) (other)
chain: B1 chain with T13L, L15T
B7: hirudin mutein M 39 (L15H) (other)
chain: B1 chain with T13L, L15H
B8: hirudin mutein M 61 (L30A) (other)
chain: B1 chain with T13L, L30A
B9: hirudin mutein M 56 (I29N) (other)
chain: B1 chain with T13L, I29N
B10: hirudin mutein M 40 (L15Q) (other)
chain: B1 chain with T13L, L15Q
B11: hirudin mutein M 79 (D53N) (other)
chain: B1 chain with T13L, D53N
B12: hirudin mutein M 13 (I29A L30Q) (other)
chain: B1 chain with T13L, I29A, L30Q
B13: hirudin mutein M 66 (L30K) (other)
chain: B1 chain with T13L, L30K
B14: hirudin mutein M 57 (I29Q) (other)
chain: B1 chain with T13L, I29Q
B15: hirudin mutein M 17 (I29D L30Q) (other)
chain: B1 chain with T13L, I29D, L30Q
B16: hirudin mutein M 64 (L30G) (other)
chain: B1 chain with T13L, L30G
B17: hirudin mutein M 69 (L30Q) (other)
chain: B1 chain with T13L, L30Q
B18: hirudin mutein M 59 (I29S) (other)
chain: B1 chain with T13L, I29S
B19: hirudin mutein M 15 (I29A L30T) (other)
chain: B1 chain with T13L, I29A, L30T
B20: hirudin mutein M 50 (I29A) (other)
chain: B1 chain with T13L, I29A
B21: hirudin mutein M 51 (I29D) (other)
chain: B1 chain with T13L, I29D
B22: hirudin mutein M 16 (I29D L30A) (other)
chain: B1 chain with T13L, I29D, L30A
B23: hirudin mutein M 60 (I29T) (other)
chain: B1 chain with T13L, I29T
B24: hirudin mutein M 38 (L15A) (other)
chain: B1 chain with T13L, L15A
B25: hirudin mutein M 14 (I29A L30R) (other)
chain: B1 chain with T13L, I29A, L30R
B26: hirudin mutein M 12 (I29A L30K) (other)
chain: B1 chain with T13L, I29A, L30K
B27: hirudin mutein M 48 (V21Q) (other)
chain: B1 chain with T13L, V21Q
B28: hirudin mutein M 54 (I29H) (other)
chain: B1 chain with T13L, I29H
B29: hirudin mutein M 19 (I29E L30K) (other)
chain: B1 chain with T13L, I29E, L30K
B30: hirudin mutein M 72 (L30T) (other)
chain: B1 chain with T13L, L30T
B31: hirudin mutein M 65 (L30H) (other)
chain: B1 chain with T13L, L30H
B32: hirudin mutein M 46 (V21N) (other)
chain: B1 chain with T13L, V21N
B33: hirudin mutein M 76 (P48A) (other)
chain: B1 chain with T13L, P48A
B34: hirudin mutein M 62 (L30D) (other)
chain: B1 chain with T13L, L30D
B35: hirudin mutein M 1 (I29A L30A) (other)
chain: B1 chain with T13L, I29A, L30A
B36: hirudin mutein M 71 (L30S) (other)
chain: B1 chain with T13L, L30S
B37: hirudin mutein M 75 (K47T) (other)
chain: B1 chain with T13L, K47T
B38: hirudin mutein M 63 (L30E) (other)
chain: B1 chain with T13L, L30E
B39: hirudin mutein M 80 (D53R) (other)
chain: B1 chain with T13L, D53R
B40: hirudin mutein M 77 (P48T) (other)
chain: B1 chain with T13L, P48T
B41: hirudin mutein M 81 (F56H) (other)
chain: B1 chain with T13L, F56H
B42: hirudin mutein M 73 (V40A) (other)
chain: B1 chain with T13L, V40A
B43: hirudin mutein M 58 (I29R) (other)
chain: B1 chain with T13L, I29R
B44: hirudin mutein M 53 (I29G) (other)
chain: B1 chain with T13L, I29G
B45: hirudin mutein M 78 (D53E) (other)
chain: B1 chain with T13L, D53E
B46: hirudin mutein M 67 (L30N) (other)
chain: B1 chain with T13L, L30N
B47: hirudin mutein M 55 (I29K) (other)
chain: B1 chain with T13L, I29K
B48: hirudin mutein M 70 (L30R) (other)
chain: B1 chain with T13L, L30R
B49: hirudin mutein M 52 (I29E) (other)
chain: B1 chain with T13L, I29E

target: thrombin; assay: cell-based or functional assay

Binder	Relative Activity (ratio of variant IC50/WT IC50), chromogenic thrombin inhibition assay [ratio]
B1	0.6
B2	1.83
B3	0.77
B4	1
B5	1
B6	0.4
B7	0.65
B8	1
B9	1
B10	0.34
B11	1
B12	1.6
B13	1
B14	1
B15	2
B16	2.2
B17	1
B18	1
B19	1.21
B20	1
B21	1
B22	1.6
B23	1
B24	0.9
B25	2.7

Binder	Relative Activity (ratio of variant IC50/WT IC50), chromogenic thrombin inhibition assay [ratio]
B26	1.45
B27	0.83
B28	1
B29	1.1
B30	1
B31	1
B32	0.83
B33	1
B34	2
B35	1.4
B36	1.83
B37	2.2
B38	3.33
B39	1
B40	1
B41	0.8
B42	1
B43	1
B44	1.8
B45	1
B46	1.54
B47	1
B48	1
B49	1
